Assay results as given in US20240239875A1 (published 2024).
Residue numbers refer to the chain shown, from its start. Read-outs that look alike come from different tables or passages of the source.

B1: 9-K4-A (antibody, V domains shown)
VH: QAYLQQSGAELVRPGASVKMSCKASGYTFPNYSFHWVKQTPRQGLEWIGAIYPGNDDTSYNQRFKGKATLTVDKSSSTAYMQLSSLTSEDSAVYFCARDYSNYPFDCWGQGTTLTVSS
VL: DIVLTQSPASLAVSLGQRATISCRASKSVSTSGYSYMHWYQQKPGQPPKLLIYLASNLESGVPARFSGSGSGTDFTLNIHPVEEEDAATYYCQHSRELPPTFGGGTKLEIK
B2: 3-E2-A (antibody, V domains shown)
VH: EVQLQQSGPELVKPGASVKISCKASGYTFTDYYMNWVKQSHGKSLEWIGDINPNNGGTSYTQKFKGKATLTVDKSSSKAYMELRSLTSEDSAVYYCARRGDGHYGGFTYWGQGTLVTVSA
VL: not shown
B3: 10-L12-A (antibody, V domains shown)
VH: B1 VH with P30T, N31S, F34M, D56G, R63K, A97T, C107Y
VL: B1 VL with M37L
B4: 4-L4-A (antibody, V domains shown)
VH: QAYLQQSGAELVRPGASVKMSCKASGYTFTSYTVHWVKQTPRQGLEWIGGIYPGNVDTSYNQNFKGKATLTVDKSSSTAYMQLSSLTSEDSAVYFCARDGYYAMDYWGQGTSVTVSS
VL: not shown
B5: 3-P7-A (antibody, V domains shown)
VH: B1 VH with P30T, N31S, F34M, R63K, A97T, S101T, C107Y
VL: B1 VL with A12P, K43R, G68A, L108V
B6: 8-H3-A (antibody, V domains shown)
VH: EVQLVESGGGLVQPKGSLKLSCAASGFTFNTYAMHWVRQAPGKGLEWVARIRSKSSNYATYYADSVKDRFTISRDDSQSMLYLQMNNLKTEDTAMYYCVRDHDYYGSSYWFTYWGQGTLVTVSA
VL: DVVMTQTPLSLPVSLGDQASISCRSSQSLVHDNGNTYLHWFLQKPGQSPKLLIYKVSNRFSGVPDRFSGSGSGTDFTLKISRVETEDLGVYFCSQSTHVPWTFGGGTKLEIK
B7: 4-A15-A (antibody, V domains shown)
VH: QVQLQQSGAELVKPGASVKISCKASGNAFSSYWMNWVKQRPGKGLEWIGQIYPGDGDTNFNGRFKGKATLTADISSTTAYMLLSSLTSEDSAVYFCASGGYGSSYERDFDYWGQGTTLTVSS
VL: DIQMNQSPSSLSASLGDTITITCHASQNINVWLSWYQQKPGNIPKLLIYKASNLHTGVPSRFSGSGSGTGFTLTISSLQPEDIATYYCQQGHSYPLTFGGGTKLEIK
B8: 4-K16-A (antibody, V domains shown)
VH: QIQLVQSGPELKKPGETVKISCKASGYTFTTYGMSWVKQAPGKGLKWMGWMSTYSGVPTYADDFKGRFAFSLETSASTAYLQINNLKNEDTATYFCASGDVGYWGQGTTLTVSS
VL: DIVMTQSQKFMSTSVGDRVSVTCKASQNVGTNVAWYQQKPGQSPKALIYSASYRYSGVPDRFTGSGSGTDFTLTISTVQSEDLAEYFCQQYNIYPSTFGGGTKLEIK
B9: 2-O12-A (antibody, V domains shown)
VH: B2 VH with P53S, S59T, T61D, K74R, K78T, Y104F
VL: not shown
B10: 9-J11-A (antibody, V domains shown)
VH: QVQLQQSGAELVKPGASVKMSCMASGYTFTTYPIEWMKQIHGKSLEWIGNFHPYNDDSKYNEKFKGKATLSVEKSSSTVYLELSRSTSDDSAVYYCARGSYGPYWYFDVWGTGTTVTVSS
VL: DIQMTQSPASLSASVGETVTITCRASGDIHNYLVWYQQKQGKSPQLLVYNAKALADGVPSRFSGSGSGTQYSLKINSLQPDDFGSYYCQHFWSIPYTFGGGTKLEIK
B11: 8-H5-A (antibody, V domains shown)
VH: QVTLKESGPGILQSSQTLSLTCSLSGFSLSTSGMGVSWVRQPSGKGLEWLAHIYWDDDKRYTPSLKSRLTISTDSSRKQVFLKITSVDTADTATYYCARRDLHDYDGWFAYWGQGTLVTVSA
VL: B8 VL with S14A, Y53F, T63S, T77N, I93S, S96L, G100S
B12: 8-L17-A (antibody, V domains shown)
VH: B6 VH with T60R, T112A
VL: B6 VL with D32N, F41Y, T85A
B13: 2-H7-A (antibody, V domains shown)
VH: QAYLQQSGAELVRPGASVKMSCKASGYTFTGYTMHWVKQTPRQGLEWIGAIYPENGDTSYNQKFKGKATLTVDKSSSTAYMQLSSLTSEDSAVYFCARDGYDVLYGMDYWGQGTSVTVSS
VL: B1 VL with P100W, E109D
B14: 10-I12-A (antibody, V domains shown)
VH: RVQLQQSGPELVRPGTSVKISCKASGYTFTDSYINWVTQRPGQGLDWIGWIFPGNDNTYYNEKFEGKATLTLDKSSSTAYMLLSSLTSEDSAVYFCARSGGLRLGFAYWGQGTLVTVSA
VL: NIVLTQSPASLAVSRGQRATISCRASESVDSYGHSFIHWYQQKPGQPPKILIYLASKLESGVPARFSGSGSRTDFTLTIDPVEADDAATYYCQQNNEDPWTFGGGTKLEIK
B15: 5-H22-A (antibody, V domains shown)
VH: QVQLQQSGAELVRPGASVTLSCKASGYTFTDYEMHWMKQTPVHGLEWIGAIDLETGGTVYNQKFKGKAILTADKSSNTAYMALRSLTSEDSAVYYCTREFPHYYGSRYGFPYWGQGTLVTVSA
VL: QIVLTQSPAIMSASPGEKVTITCSASSSVSYMHWLQQKPGTSPKLWIYSTSNLASGVPARFSGSGSGTSYSLTISRMEAEDAATYYCQQRSSYPYTFGGGTKLEIK
B16: 4-M3-A (antibody, V domains shown)
VH: EVQLQQSGPELVKPGDSVKISCKASGYSFTGYFMNWVMQSHGKSLEWIGRINPNNGETFYNQKFKGKATLTVDKSSDTAHMELRSLTSEDSAVYYCARGGTGTGWGQGTTLTVSS
VL: DILMTQSPSSMSVSLGDTVSITCHASQGISSNIGWLQQKPGKSFKGLIYYGTNLEDGVPSRFSGSGSGADYSLTISSLESEDLADYYCIQYAQFPYTFGGGTKLEIK
B17: 10-L24-A (antibody, V domains shown)
VH: B2 VH with P53S, S59T, T61D, K74R, K78T, Y104F
VL: not shown
B18: 10-O24-A (antibody, V domains shown)
VH: B1 VH with P30T, N31S, F34M, R63K, K74R, A97T, C107Y
VL: B1 VL with S14F, K43R
B19: 7-B10-A (antibody, V domains shown)
VH: B6 VH with T60R, D76E, T112A
VL: B6 VL with R24S, D32N, F41Y, T85A
B20: 5-P24-A (antibody, V domains shown)
VH: B1 VH with P30T, N31S, F34M, D56G, N61T, R63K, C107Y
VL: not shown
B21: 10-O3-A (antibody, V domains shown)
VH: QVQLKESGPGLVAPSQSLSITCTVSGFSLTNYAVHWVRQSPGKGLEWLGVIWSDGRTDYNAAFISRLSISKDNSKSQVFFKMNSLQADDTAIYYCVRIEGGSYVGWYFDVWGAGTTVTVSS
VL: DIQMTQSPSSLSASLGGTVTITCKASQDINKFIAWYQHKPGKGPRLLIHYTSTLQPGIPSRFSGSGSGRDYSFSISNLEPEDIATYYCLQYDNLLTFGAGTKLELK
B22: 7-N20-A (antibody, V domains shown)
VH: QVQLVETGGGLVRPGNSLKLSCVTSGFTFSNYRMHWLRQPPGKRLEWIGIITDKSDNYGANYAESVKGRFAISRDDSKSSVYLEMKRLREEDTATYFCSRDGYDWYFDLWGTGTTVTVSS
VL: DIVMTQSHKFMSTSVGDRVRITCKASQDVGIVVAWYQQKPGQSPKLLIYWASTRHTGVPDRFTGSGSGTDFTLTISNVQSEDLADYFCQQYSSYPTFGGGTKLEIK

Tests used:
Assay in all cases: ELISA
[1] = target: SARS-CoV-2 receptor binding domain (UniProt P0DTC2 319-541)
[2] = target: T1, SARS-CoV-2 prefusion stabilized trimer protein (WIV02 isolate spike protein) (UniProt P0DTC2 14-1213)
[3] = target: T1, SARS-CoV-2 prefusion stabilized trimer …; remark: listed apart in the source

Binder	EC50 [1] [pM]	EC50 [2] [pM]	EC50 [3] [pM]
B1	730	1130	–
B2	800	870	–
B3	130	110	–
B4	220	370	–
B5	2930	38100	–
B6	190	270	–
B7	–	330	340
B8	–	1040	1010
B9	220	840	–
B10	–	220	220
B11	130	80	–
B12	270	270	–
B13	80	130	–
B14	–	64400	64400
B15	166000	75500	18500
B16	260	1940	–
B17	310	920	–
B18	3070	1070	–
B19	80	160	–
B20	120	290	–
B21	–	3470	3370
B22	–	240	–
